The source of these data is US20190184028A1 (Janssen / Centocor, published 2019).

B1: 83v15-SPION (designed binder)
chain: MLPAPKNLVVSEVTEDSARLSWDDPWAFYESFLIQYQESEKVGEAIVLTVPGSERSYDLTGLKPGTEYTVSIYGVHNVYKDTNMRGLPLSAIFTTGGHHHHHHC
modifications: C-terminal Cys coupled to a superparamagnetic iron oxide nanoparticle (SPION)
notes: Cysteine variant of P54AR4-83v2 on a nanoparticle; also called 83v15 = C-terminal
B2: 83v10-SPION (designed binder)
chain: MLPAPKNLVVSEVTCDSARLSWDDPWAFYESFLIQYQESEKVGEAIVLTVPGSERSYDLTGLKPGTEYTVSIYGVHNVYKDTNMRGLPLSAIFTTGGHHHHHH
modifications: Cys 15 coupled to a superparamagnetic iron oxide nanoparticle (SPION)
notes: Cysteine variant of the EGFR-targeting FN3 domain P54AR4-83v2, many copies on a nanoparticle (50:1 molar ratio in the reaction); also called 83v10 = E15C
B3: 83v12-SPION (designed binder)
chain: B2 chain with C15E, R19C
modifications: Cys 19 coupled to a superparamagnetic iron oxide nanoparticle (SPION)
notes: Cysteine variant of P54AR4-83v2 on a nanoparticle; also called 83v12 = R19C

Substitutions are numbered along the chain they refer to. Numbers in names are those of the source.

The target of this experiment is T1, epidermal growth factor receptor (EGFR) (human, UniProt P00533 25-1210).
T1 construct: whole, on cells; The cell assays use human tumour lines; also called hEGFR
Briefly: flow cytometry on H292 cells. How it is done:
To determine the activity of the recently created FN3 domain molecule-SPION, cell targeting assays were set-up in vitro. H292 cells were dissociated from a T-150 cell culture flask using Hank's Enzyme free dissociation buffer (Invitrogen—13150-016). The cells and dissociation buffer were incubated for 15 minutes in a cell incubator. The flask was gently tapped to dissociate any residually bound cells and the buffer and cells were transferred to a 15 mL conical tube. The cells were spun at 1,000 rcf for 2 minutes. The supernatant was gently removed with careful consideration paid to not disturbing the pelleted cells. The cell pellet left over was reconstituted in 1.5 mL of phenol-red free RPMI 1640 media with 10% FBS. It was determined that the suspension contained approximately […]. 100 μL of this suspension was added to each well of a 96-well plate. FN3 domain molecule-SPION sample concentrations are listed above. From these known concentrations, FN3 domain molecule-SPION was added to each well so that the final concentration of FN3 domain molecule-SPION with the cells was 100 μg/mL Fe. Samples were plated in triplicate and incubated for 30 minutes and then purified via 3× centrifugation at 1,000×rcf and resuspension in dPBS pH 7.2. Samples were suspended in a final volume of 300 μL and moved to a clear, flat bottom 96-well plate for analysis on the Guava HTS flow cytometer. A total of 8,000 cells were counted for each sample. Following flow, population samples were analyzed using FlowJo. Each sample was gated so that only live cells were assessed for fluorescence. Histograms were obtained wherein the black peak (the peak to the left side of the graph) is the autofluorescence obtained from unlabeled H292 cells. The blue peak (the peak to the right side of the graph) corresponds to the sample title above the histogram. 83v10, 83v12 and 83v15 are positively shifted compared to the tencon25 control or blank cells (FIGS. 1A-1D). […] All samples were normalized by subtracting the blank cell autofluorescence from the mean fluorescent intensities of each sample. […]
A general note: In flow cytometry, cells or beads pass a laser one at a time.
For B1, the binding result was “binds”.

As to B2, the binding result is listed as “binds”.

With B3, the binding result is reported as “binds”.
